Experimental data: publication PMC3946335 (Small (Weinheim an der Bergstrasse, Germany), 2013)

Tests used:
[1] = Laser Doppler Electrophoresis, zeta potential; assay type: physicochemical
[2] = test system: MMTV-PyMT tumor cells; assay: Caspase-3/7 assay; assay type: cell-based, murine; conditions: DEVD-AMC fluorescence, triplicate samples, printed as x:1
[3] = Dynamic Light Scattering, nanoparticle size; assay type: physicochemical; conditions: nanoparticle size by DLS; PBS buffer, filtered 0.2 μm, diluted to 0.6 mM iron
[4] = test system: PyMT tumors; assay: Antitumor activity, daily tumor size; assay type: in vivo, mouse; conditions: calipers, daily for 7 days after single IV injection; n=6 mice
[5] = Iron oxide core size by TEM; assay type: physicochemical; conditions: after functionalization
[6] = test system: 4T1 cells; assay: Caspase-3/7 assay; assay type: cell-based, murine; conditions: low MMP-14
[7] = Number of ICT molecules per nanoparticle, from FITC absorption and emission; assay type: physicochemical; conditions: from attached fluorescein absorption at 492 nm and known TNP concentration
[8] = test system: normal organs (liver, spleen, kidney, brain, bone marrow and heart); assay: Toxicity in normal organs; assay type: in vivo, mouse; conditions: histology and caspase-3 activity
[9] = test system: MMTV-PyMT tumors; assay: Tumor histology; assay type: in vivo, mouse
[10] = r1 and r2 relaxivities by NMR; assay type: physicochemical; conditions: relaxivity; 1 – 60 mM iron; Varian Inova 300MHz (7 Tesla) NMR
[11] = test system: MMTV-PyMT tumors; assay: In vivo T2-weighted MR imaging of tumor accumulation; design: species or system mouse; conditions: single IV injection: ferumoxytol 0.5 mmol Fe/kg, CLIO-ICT 0.75 mmol Fe/kg, ICT 1.0 μmol/kg; up to 24 h; n=6
[12] = test system: human dermal fibroblasts; assay: Caspase-3/7 assay; assay type: cell-based; conditions: MMP-14 negative fibroblasts
[13] = target: recombinant MMP-14 (Homo sapiens, UniProt P50281); assay type: biochemical; conditions: ICT 10 mM, recombinant MMP-14 20 μg/mL, PBS buffer, 37 °C, identical conditions (2 hours); HPLC

Substance | Z (zeta potential) ([1]; Laser Doppler Electrophoresis, PBS buffer, filtered 0.2 μm, 0.6 mM iron) | charge of the nanoparticle ([1]; sign of zeta potential, laser Doppler electrophoresis) | caspase expression ratio relative to the PBS control [2] | D (DLS) [3] | change in tumor size [4] | iron oxide core size [5] | response to treatment (caspase assay) [6] | # of ICT (ICT molecules per iron oxide nanoparticle) [7] | toxicity or cell death in normal tissues [8] | iron deposits in tumors (Prussian Blue) ([9]; 48 hours after intravenous administration) | tumor necrosis (pathologic evaluation, H&E) ([9]; MMTV-PyMT tumors) | Cy3-labeled cleaved Caspase-3 immunofluorescent staining of tumor cells ([9]; MMTV-PyMT tumors, 48 hours after administration) | r1 [10] | tumor enhancement on postcontrast T2-weighted MR images [11] | cytotoxic effects (caspase assay) [12] | prodrug cleaved by MMP-14 [13]
FITC-βAla-Cys-Arg-Ser-Cit-Gly-HPhe-Tyr-Leu-Tyr [CLIO-ICT] | +21±7 meV | positive | 2.883 | 21±3 nm | overall decrease in tumor size | 6.5±0.7 nm | not responsive | 4.7±0.4 | no toxicity or cell death | Iron deposits were noted | progressive increase in the severity of tumor necrosis | significant labeling of tumor cells | 38.9 mM⁻¹ s⁻¹ | negative (dark) enhancement | did not show any significant cytotoxic effects | –
FITC-βAla-Cys-Arg-Ser-Cit-Gly-HPhe-Tyr-Leu-Tyr [ICT] | – | – | 2.994 | – | – | – | – | – | – | – | – | – | – | did not show any significant MR signal enhancement | – | 89%
